Data from patent US20150374794A1 (Novo Nordisk, published 2015).
Numbered stars: 1 amine (or outer) side, 2 acyl side, 3 side chain; on linkers, the order of the positions; unused ones are H or OH. Square brackets hold non-standard residues; d marks the D form. Side chains are listed from the residue outwards. Ends that are not written are not given here. * marks the point of attachment. C18 diacid = O=C(O)CCCCCCCCCCCCCCCCC(=O)*; γGlu = O=C(O)[C@H](CCC(=O)[*:2])N[*:1]; AEEA = NCCOCCOCC(=O)O; Aib = CC(C)(N)C(=O)O

Tests used:
[1] = biological target: T1, human GLP-1 receptor (human, UniProt P43220 24-463); experiment: displacement of 125I-GLP-1(7-36)NH2, membranes with human GLP-1R, SPA
T1 construct: whole, on cells; the potency assay used whole cells (clone FCW467-12A/KZ10-1)
Experimental: (§1) The receptor binding of each compound to the human GLP-1 receptor was measured in a displacement binding assay. […] Each derivative was added in a series of concentrations to isolated membranes containing the human GLP-1 receptor and displacement of the labelled ligand was monitored. The receptor binding was reported as the concentration at which half of the labelled ligand was displaced from the receptor, the IC₅₀ value.

[2] = biological target: T2, human glucagon receptor (human, UniProt P47871 26-477); experiment: cell-based or functional assay
T2 sequence (P47871 26-477): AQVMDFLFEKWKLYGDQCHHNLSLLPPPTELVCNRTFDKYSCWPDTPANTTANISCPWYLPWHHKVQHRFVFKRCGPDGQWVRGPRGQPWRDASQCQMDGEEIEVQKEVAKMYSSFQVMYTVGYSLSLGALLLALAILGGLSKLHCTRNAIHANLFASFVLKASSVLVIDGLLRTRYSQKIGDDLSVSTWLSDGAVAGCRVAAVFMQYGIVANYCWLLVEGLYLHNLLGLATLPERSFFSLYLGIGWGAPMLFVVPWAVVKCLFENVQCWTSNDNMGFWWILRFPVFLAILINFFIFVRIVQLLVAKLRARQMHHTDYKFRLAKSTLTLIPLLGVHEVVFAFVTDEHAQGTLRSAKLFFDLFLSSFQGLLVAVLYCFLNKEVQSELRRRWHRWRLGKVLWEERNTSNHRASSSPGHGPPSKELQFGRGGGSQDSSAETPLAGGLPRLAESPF

[3] = biological target: T1, human GLP-1 receptor; experiment: cell-based or functional assay
[4] = biological target: T2, human glucagon receptor; experiment: displacement of 125I-glucagon, membranes with human glucagon receptor, SPA
Experimental: as §1, with “human glucagon” for “human GLP-1”, “ligand is” for “ligand was”

B1: N^ε28-[(4S)-4-carboxy-4-[[(4S)-4-carboxy-4-[[2-[2-[2-[[2-[2-[2-[[(4S)-4-carboxy-4-(17-carboxyheptadecanoylamino)butanoyl]amino]ethoxy]ethoxy]acetyl]amino]ethoxy … (peptide)
peptide: H[Aib]QGTFTSDLSKYLESKAAREFVQWLLK([γGlu-γGlu-AEEA-AEEA-γGlu-C18 diacid])T-NH2
modifications: N-terminus assumed
SMILES: CC(C)C[C@H](NC(=O)[C@H](Cc1ccc(O)cc1)NC(=O)[C@H](CCCCN)NC(=O)[C@H](CO)NC(=O)[C@H](CC(C)C)NC(=O)[C@H](CC(=O)O)NC(=O)[C@H](CO)NC(=O)[C@@H](NC(=O)[C@H](Cc1ccccc1)NC(=O)[C@@H](NC(=O)CNC(=O)[C@H](CCC(N)=O)NC(=O)C(C)(C)NC(=O)[C@@H](N)Cc1c[nH]cn1)[C@@H](C)O)[C@@H](C)O)C(=O)N[C@@H](CCC(=O)O)C(=O)N[C@@H](CO)C(=O)N[C@@H](CCCCN)C(=O)N[C@@H](C)C(=O)N[C@@H](C)C(=O)N[C@@H](CCCNC(=N)N)C(=O)N[C@@H](CCC(=O)O)C(=O)N[C@@H](Cc1ccccc1)C(=O)N[C@H](C(=O)N[C@@H](CCC(N)=O)C(=O)N[C@@H](Cc1c[nH]c2ccccc12)C(=O)N[C@@H](CC(C)C)C(=O)N[C@@H](CC(C)C)C(=O)N[C@@H](CCCCNC(=O)CC[C@H](NC(=O)CC[C@H](NC(=O)COCCOCCNC(=O)COCCOCCNC(=O)CC[C@H](NC(=O)CCCCCCCCCCCCCCCCC(=O)O)C(=O)O)C(=O)O)C(=O)O)C(=O)N[C@H](C(N)=O)[C@@H](C)O)C(C)C
IC50 [1]: 0.2 nM | EC50 GlucR, CRE luciferase reporter gene assay in BHK cells [2]: 506 pM | EC50 GLP-1R, CRE luciferase reporter gene assay in BHK cells [3]: 11.9 pM | IC50 [4]: 61 nM

B2: N^ε28-[(4S)-4-carboxy-4-[[(4S)-4-carboxy-4-[[2-[2-[2-[[2-[2-[2-[[(4S)-4-carboxy-4-(17-carboxyheptadecanoylamino)butanoyl]amino]ethoxy]ethoxy]acetyl]amino]ethoxy … (peptide)
peptide: H[Aib]QGTFTSDLSKYLDSRRAREFVQWLLK([γGlu-γGlu-AEEA-AEEA-γGlu-C18 diacid])T-NH2
modifications: N-terminus assumed
SMILES: CC(C)C[C@H](NC(=O)[C@H](Cc1ccc(O)cc1)NC(=O)[C@H](CCCCN)NC(=O)[C@H](CO)NC(=O)[C@H](CC(C)C)NC(=O)[C@H](CC(=O)O)NC(=O)[C@H](CO)NC(=O)[C@@H](NC(=O)[C@H](Cc1ccccc1)NC(=O)[C@@H](NC(=O)CNC(=O)[C@H](CCC(N)=O)NC(=O)C(C)(C)NC(=O)[C@@H](N)Cc1c[nH]cn1)[C@@H](C)O)[C@@H](C)O)C(=O)N[C@@H](CC(=O)O)C(=O)N[C@@H](CO)C(=O)N[C@@H](CCCNC(=N)N)C(=O)N[C@@H](CCCNC(=N)N)C(=O)N[C@@H](C)C(=O)N[C@@H](CCCNC(=N)N)C(=O)N[C@@H](CCC(=O)O)C(=O)N[C@@H](Cc1ccccc1)C(=O)N[C@H](C(=O)N[C@@H](CCC(N)=O)C(=O)N[C@@H](Cc1c[nH]c2ccccc12)C(=O)N[C@@H](CC(C)C)C(=O)N[C@@H](CC(C)C)C(=O)N[C@@H](CCCCNC(=O)CC[C@H](NC(=O)CC[C@H](NC(=O)COCCOCCNC(=O)COCCOCCNC(=O)CC[C@H](NC(=O)CCCCCCCCCCCCCCCCC(=O)O)C(=O)O)C(=O)O)C(=O)O)C(=O)N[C@H](C(N)=O)[C@@H](C)O)C(C)C
IC50 [1]: 0.3 nM | EC50 GlucR, CRE luciferase reporter gene assay in BHK cells [2]: 6.3 pM | EC50 GLP-1R, CRE luciferase reporter gene assay in BHK cells [3]: 5.3 pM | IC50 [4]: 2.1 nM
